Reference: patent publication US20240209076A1 (KODIAK SCIENCES, published 2024)
Residue numbers refer to the chain shown, from its start. Numbers in names are those of the source.

B1: anti-IL-6 Fab, light chain S55L (Fab, V domains shown)
VH: EVQLVESGGGLVQPGGSLRLSCAASGFTFSPFAMSWVRQAPGKGLEWVAKISPGGSWTYYSDTVTGRFTFSLDTSKSTAYLQMNSLRAEDTAVYYCARQLWGYYALDIWGQGTLVTVSS
VL: DIQLTQSPSSLSASVGDRVTITCSASISVSYMYWYQQKPGKAPKLLIYDMSNLALGVPSRFSGSGSGTDFTLTISSLQPEDFATYYCMQWSGYPYTFGQGTKVEIK
notes: see m39
B2: anti-IL-6 Fab, heavy chain I108S (Fab, V domains shown)
VH: B1 VH with I108S
VL: B1 VL with L55S
B3: anti-IL-6 Fab, heavy chain Q99A (Fab, V domains shown)
VH: B1 VH with Q99A
VL: B1 VL with L55S
B4: anti-IL-6 Fab, heavy chain A105Q (Fab, V domains shown)
VH: B1 VH with A105Q
VL: B1 VL with L55S
B5: anti-IL-6 Fab, heavy chain A97V (Fab, V domains shown)
VH: B1 VH with A97V
VL: B1 VL with L55S
B6: anti-IL-6 Fab, heavy chain D107E (Fab, V domains shown)
VH: B1 VH with D107E
VL: B1 VL with L55S
B7: anti-IL-6 Fab, heavy chain I108E (Fab, V domains shown)
VH: B1 VH with I108E
VL: B1 VL with L55S
B8: anti-IL-6 Fab, heavy chain Y103S (Fab, V domains shown)
VH: B1 VH with Y103S
VL: B1 VL with L55S
B9: anti-IL-6 Fab, heavy chain G102D (Fab, V domains shown)
VH: B1 VH with G102D
VL: B1 VL with L55S
B10: anti-IL-6 Fab, heavy chain Y104V (Fab, V domains shown)
VH: B1 VH with Y104V
VL: B1 VL with L55S
B11: anti-IL-6 Fab, heavy chain L100K (Fab, V domains shown)
VH: B1 VH with L100K
VL: B1 VL with L55S
B12: anti-IL-6 Fab, heavy chain Y103E (Fab, V domains shown)
VH: B1 VH with Y103E
VL: B1 VL with L55S
B13: anti-IL-6 Fab, heavy chain Q99H (Fab, V domains shown)
VH: B1 VH with Q99H
VL: B1 VL with L55S
B14: anti-IL-6 Fab, light chain S91K (Fab, V domains shown)
VH: B1 VH
VL: B1 VL with L55S, S91K
notes: see m39
B15: anti-IL-6 Fab, light chain Y33F (Fab, V domains shown)
VH: B1 VH
VL: B1 VL with Y33F, L55S
notes: see m39
B16: anti-IL-6 Fab, light chain S55R (Fab, V domains shown)
VH: B1 VH
VL: B1 VL with L55R
notes: see m39
B17: anti-IL-6 Fab, light chain T96L (Fab, V domains shown)
VH: B1 VH
VL: B1 VL with L55S, T96L
notes: see m39
B18: anti-IL-6 Fab, light chain S91A (Fab, V domains shown)
VH: B1 VH
VL: B1 VL with L55S, S91A
notes: see m39
B19: anti-IL-6 Fab, light chain Y95G (Fab, V domains shown)
VH: B1 VH
VL: B1 VL with L55S, Y95G
notes: see m39
B20: anti-IL-6 Fab, light chain Y31G (Fab, V domains shown)
VH: B1 VH
VL: B1 VL with Y31G, L55S
notes: see m39
B21: anti-IL-6 Fab, light chain S55Y (Fab, V domains shown)
VH: B1 VH
VL: B1 VL with L55Y
notes: see m39
B22: anti-IL-6 Fab, light chain V29L (Fab, V domains shown)
VH: B1 VH
VL: B1 VL with V29L, L55S
notes: see m39
B23: anti-IL-6 Fab, light chain Y95I (Fab, V domains shown)
VH: B1 VH
VL: B1 VL with L55S, Y95I
notes: see m39
B24: anti-IL-6 Fab, light chain S55V (Fab, V domains shown)
VH: B1 VH
VL: B1 VL with L55V
notes: see m39
B25: anti-IL-6 Fab, light chain Y31F (Fab, V domains shown)
VH: B1 VH
VL: B1 VL with Y31F, L55S
notes: see m39
B26: anti-IL-6 Fab, light chain T96I (Fab, V domains shown)
VH: B1 VH
VL: B1 VL with L55S, T96I
notes: see m39
B27: anti-IL-6 Fab, light chain Y48W (Fab, V domains shown)
VH: B1 VH
VL: B1 VL with Y48W, L55S
notes: see m39
B28: anti-IL-6 Fab, light chain T96V (Fab, V domains shown)
VH: B1 VH
VL: B1 VL with L55S, T96V
notes: see m39
B29: anti-IL-6 Fab, light chain S55W (Fab, V domains shown)
VH: B1 VH
VL: B1 VL with L55W
notes: see m39
B30: anti-IL-6 Fab, light chain S55P (Fab, V domains shown)
VH: B1 VH
VL: B1 VL with L55P
notes: see m39
B31: anti-IL-6 Fab, light chain Y48F (Fab, V domains shown)
VH: B1 VH
VL: B1 VL with Y48F, L55S
notes: see m39
B32: anti-IL-6 antibody, light chain A54Y (heavy chain WT) (antibody, V domains shown)
VH: B1 VH
VL: B1 VL with A54Y, L55S
notes: See note of m2; also called WT / A54Y
B33: anti-IL-6 antibody, light chain L53R (heavy chain WT) (antibody, V domains shown)
VH: B1 VH
VL: B1 VL with L53R, L55S
notes: See note of m2; also called WT / L53R
B34: anti-IL-6 antibody, light chain I47V (heavy chain WT) (antibody, V domains shown)
VH: B1 VH
VL: B1 VL with I47V, L55S
notes: See note of m2; also called WT / 147V
B35: anti-IL-6 antibody, light chain S30A (heavy chain WT) (antibody, V domains shown)
VH: B1 VH
VL: B1 VL with S30A, L55S
notes: See note of m2; also called WT / S30A
B36: anti-IL-6 antibody, light chain L53W (heavy chain WT) (antibody, V domains shown)
VH: B1 VH
VL: B1 VL with L53W, L55S
notes: See note of m2; also called WT / L53W
B37: anti-IL-6 antibody, light chain L53H (heavy chain WT) (antibody, V domains shown)
VH: B1 VH
VL: B1 VL with L53H, L55S
notes: See note of m2; also called WT / L53H
B38: anti-IL-6 antibody, light chain N52S (heavy chain WT) (antibody, V domains shown)
VH: B1 VH
VL: B1 VL with N52S, L55S
notes: See note of m2; also called WT / N52S
B39: anti-IL-6 antibody, light chain L46V (heavy chain WT) (antibody, V domains shown)
VH: B1 VH
VL: B1 VL with L46V, L55S
notes: See note of m2; also called WT / L46V
B40: anti-IL-6 antibody, light chain Q89A (heavy chain WT) (antibody, V domains shown)
VH: B1 VH
VL: B1 VL with L55S, Q89A
notes: See note of m2; also called WT / Q89A
B41: anti-IL-6 antibody, light chain A54L (heavy chain WT) (antibody, V domains shown)
VH: B1 VH
VL: B1 VL with A54L, L55S
notes: See note of m2; also called WT / A54L
B42: anti-IL-6 antibody, light chain Q89S (heavy chain WT) (antibody, V domains shown)
VH: B1 VH
VL: B1 VL with L55S, Q89S
notes: See note of m2; also called WT / Q89S
B43: anti-IL-6 antibody, light chain A54G (heavy chain WT) (antibody, V domains shown)
VH: B1 VH
VL: B1 VL with A54G, L55S
notes: See note of m2; also called WT / A54G

target: recombinant human IL-6 (human, UniProt P05231 30-212); assay: SPR, IL-6 on CM5 chip, Fab lysate, 25 C
Target sequence in this assay (P05231 30-212 limits assumed): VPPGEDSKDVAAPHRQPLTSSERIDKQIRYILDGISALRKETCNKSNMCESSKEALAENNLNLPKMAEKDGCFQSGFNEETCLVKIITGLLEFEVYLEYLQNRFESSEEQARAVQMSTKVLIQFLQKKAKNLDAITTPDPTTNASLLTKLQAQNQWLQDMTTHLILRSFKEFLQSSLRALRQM

koff | Binder
0.00507 s⁻¹ | B1
0.00352 s⁻¹ | B2
0.00388 s⁻¹ | B3
0.00401 s⁻¹ | B4
0.00412 s⁻¹ | B5
0.00438 s⁻¹ | B6
0.00308 s⁻¹ | B7
0.00502 s⁻¹ | B8
0.00389 s⁻¹ | B9
0.00381 s⁻¹ | B10
0.00287 s⁻¹ | B11
0.00512 s⁻¹ | B12
0.00441 s⁻¹ | B13
0.00549 s⁻¹ | B14
0.00618 s⁻¹ | B15
0.00526 s⁻¹ | B16

koff | Binder
0.00478 s⁻¹ | B17
0.00559 s⁻¹ | B18
0.00462 s⁻¹ | B19
0.00511 s⁻¹ | B20
0.00508 s⁻¹ | B21
0.00543 s⁻¹ | B22
0.00608 s⁻¹ | B23
0.00516 s⁻¹ | B24
0.0051 s⁻¹ | B25
0.00423 s⁻¹ | B26
0.00563 s⁻¹ | B27
0.00504 s⁻¹ | B28
0.0051 s⁻¹ | B29
0.0052 s⁻¹ | B30
0.00537 s⁻¹ | B31

target: T1, recombinant human IL-6 (human, UniProt P05231 30-212); assay: SPR Biacore, supernatant Ab on Protein A chip, IL-6 analyte, 25 C
T1 construct: Bought protein
Procedure: Antibodies were captured on a Protein A chip (GE) by injecting 1:20 dilution of cell supernatant at 10 μL/min for 60 seconds. […] The sensor chip was regenerated by a 60 seconds injection of 10 mM Glycine pH 1.7 at flow rate of 50 μL/min. […] For this setup, 1 μg/mL of purified antibody was injected over a Protein A chip at 10 μL/min for 25-28 seconds. Data analysis for supernatant and purified samples were performed using BIAevaluation software (GE). All sensorgrams were double reference subtracted and fit using a 1:1 Langmuir binding model.
T1 sequence (P05231 30-212 limits assumed): as above

Kd | koff | kon | Binder
0.168 nM | 0.000109 s⁻¹ | 652000 M⁻¹ s⁻¹ | B32
0.446 nM | 0.000185 s⁻¹ | 416000 M⁻¹ s⁻¹ | B33
0.414 nM | 0.000195 s⁻¹ | 471000 M⁻¹ s⁻¹ | B34
0.639 nM | 0.000163 s⁻¹ | 255000 M⁻¹ s⁻¹ | B35
0.00518 nM | 6.14e-06 s⁻¹ | 1.19e+06 M⁻¹ s⁻¹ | B36
0.401 nM | 0.000218 s⁻¹ | 544000 M⁻¹ s⁻¹ | B37
0.353 nM | 0.000152 s⁻¹ | 430000 M⁻¹ s⁻¹ | B38
0.442 nM | 0.000203 s⁻¹ | 460000 M⁻¹ s⁻¹ | B39
0.419 nM | 0.000227 s⁻¹ | 543000 M⁻¹ s⁻¹ | B40
0.499 nM | 0.00021 s⁻¹ | 420000 M⁻¹ s⁻¹ | B41
0.752 nM | 0.000272 s⁻¹ | 362000 M⁻¹ s⁻¹ | B42
0.416 nM | 0.000198 s⁻¹ | 475000 M⁻¹ s⁻¹ | B43
